Laboratory results from patent US20180346600A1 (AJOU UNIVERSITY INDUSTRY ACADEMIC COOPERATION FOUNDATION, published 2018).
Values belong to the binder of their own block, whether it stands above or below them.

Key:
[1] = target: T1, displayed FcCH3A, KiH (Genentech) (T366S/L368A/Y407V), on yeast cell surface (human, UniProt P0DOX5 227-449 = IgG part); assay: flow cytometry histogram (PE, FL2-H) of diploid yeast: Flag-tagged secreted FcCH3B held on displayed FcCH3A, anti-Flag mouse mAb and PE anti-mouse antibody
T1 construct: also called KiH CH3A chain (yeast)
T1 Fc: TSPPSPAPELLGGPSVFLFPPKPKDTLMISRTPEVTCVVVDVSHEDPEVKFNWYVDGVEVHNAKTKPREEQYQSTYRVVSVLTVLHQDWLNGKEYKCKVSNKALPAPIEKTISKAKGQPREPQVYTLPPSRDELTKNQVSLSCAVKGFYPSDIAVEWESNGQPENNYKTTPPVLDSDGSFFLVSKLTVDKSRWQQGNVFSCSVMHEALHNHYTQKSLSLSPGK
Description: (§1) Specifically, the diploid in which the expression of the heterodimeric heavy chain constant region was induced was reacted with an antibody recognizing flag-tag included in the secreted FcCH3B (anti-Flag mouse mAb, F3165) (Sigma-Aldrich) and an antibody conjugated with PE (phycoerythrin conjugated anti-mouse mAb, sc-3738) (Santa Cruz biotechnology), and a signal of PE was analyzed by flow cytometry.

[2] = target: T2, displayed FcCH3A, B256 (K392N/D399L), on yeast cell surface (human, UniProt P0DOX5 227-449 = IgG part); assay: flow cytometry of diploid yeast: MFI of Flag-tagged secreted FcCH3B held on displayed FcCH3A (anti-Flag mouse mAb and PE anti-mouse antibody), normalised to EW-RVT = 100 %
T2 construct: also called B256 CH3A chain (yeast)
T2 Fc: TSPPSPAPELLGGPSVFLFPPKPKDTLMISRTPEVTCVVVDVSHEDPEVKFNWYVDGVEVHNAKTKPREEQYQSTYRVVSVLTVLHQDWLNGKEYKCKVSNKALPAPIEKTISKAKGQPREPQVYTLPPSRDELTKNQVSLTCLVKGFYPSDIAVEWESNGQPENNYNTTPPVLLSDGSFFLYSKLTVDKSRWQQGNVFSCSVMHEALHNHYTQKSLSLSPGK
Excerpt: (§2) FACS was sequentially performed four times. […] Table 9 below summarizes the mutation pairs introduced into individual clones selected from the respective LibA2 and LibB2 libraries.

[3] = target: T3, Hole-Hole (displayed FcCH3A on yeast cell surface); assay: flow cytometry histogram (PE, FL2-H) of diploid yeast: Flag-tagged secreted FcCH3B held on displayed FcCH3A, anti-Flag mouse mAb and PE anti-mouse antibody
T3 construct: also called Hole-Hole (Genentech) CH3A chain (yeast), T366S/L368A/Y407V
T3 Fc: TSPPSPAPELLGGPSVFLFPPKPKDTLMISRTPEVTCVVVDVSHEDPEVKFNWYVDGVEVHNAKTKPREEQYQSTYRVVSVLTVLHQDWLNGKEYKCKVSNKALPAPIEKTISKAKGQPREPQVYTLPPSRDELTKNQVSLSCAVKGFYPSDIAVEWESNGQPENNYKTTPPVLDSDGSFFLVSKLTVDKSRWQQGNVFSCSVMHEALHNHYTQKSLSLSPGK
Description: as §1

[4] = target: T4, displayed FcCH3A, B235 (K392C/D399L), on yeast cell surface (human, UniProt P0DOX5 227-449 = IgG part, chain 1 pos 168 (K392C): said to form an inter-chain disulfide with D399C of the CH3B partner); assay: flow cytometry of diploid yeast: MFI of Flag-tagged secreted FcCH3B held on displayed FcCH3A (anti-Flag mouse mAb and PE anti-mouse antibody), normalised to EW-RVT = 100 %
T4 construct: also called B235 CH3A chain (yeast)
T4 Fc: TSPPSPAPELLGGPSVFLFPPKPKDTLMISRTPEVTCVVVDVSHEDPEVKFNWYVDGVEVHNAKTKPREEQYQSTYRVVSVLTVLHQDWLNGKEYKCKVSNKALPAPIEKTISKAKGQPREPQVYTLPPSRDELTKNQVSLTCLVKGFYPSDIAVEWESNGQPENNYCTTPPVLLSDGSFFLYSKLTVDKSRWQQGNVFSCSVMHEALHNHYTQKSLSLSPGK
Excerpt: as §2

[5] = target: T5, displayed FcCH3A, B239 (K392L/D399L), on yeast cell surface (human, UniProt P0DOX5 227-449 = IgG part); assay: as above
T5 construct: also called B239 CH3A chain (yeast)
T5 Fc: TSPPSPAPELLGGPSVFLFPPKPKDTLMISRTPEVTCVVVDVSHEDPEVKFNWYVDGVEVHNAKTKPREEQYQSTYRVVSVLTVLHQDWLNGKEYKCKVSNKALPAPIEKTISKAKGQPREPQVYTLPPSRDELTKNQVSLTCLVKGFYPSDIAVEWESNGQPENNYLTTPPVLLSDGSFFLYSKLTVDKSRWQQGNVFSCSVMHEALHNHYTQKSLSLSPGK
Excerpt: as §2

[6] = target: T6, displayed FcCH3A, B240 (K392S/K409R/D399L), on yeast cell surface (human, UniProt P0DOX5 227-449 = IgG part); assay: as above
T6 construct: also called B240 CH3A chain (yeast)
T6 Fc: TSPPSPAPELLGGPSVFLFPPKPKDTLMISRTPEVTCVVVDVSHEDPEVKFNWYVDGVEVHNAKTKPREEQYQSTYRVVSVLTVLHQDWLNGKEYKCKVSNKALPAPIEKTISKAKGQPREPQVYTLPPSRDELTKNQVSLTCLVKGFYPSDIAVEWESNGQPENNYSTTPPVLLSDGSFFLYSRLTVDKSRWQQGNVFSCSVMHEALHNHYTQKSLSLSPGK
Excerpt: as §2

[7] = target: T7, displayed FcCH3A, B215 (K392R/K409R/D399L), on yeast cell surface (human, UniProt P0DOX5 227-449 = IgG part); assay: as above
T7 construct: also called B215 CH3A chain (yeast)
T7 Fc: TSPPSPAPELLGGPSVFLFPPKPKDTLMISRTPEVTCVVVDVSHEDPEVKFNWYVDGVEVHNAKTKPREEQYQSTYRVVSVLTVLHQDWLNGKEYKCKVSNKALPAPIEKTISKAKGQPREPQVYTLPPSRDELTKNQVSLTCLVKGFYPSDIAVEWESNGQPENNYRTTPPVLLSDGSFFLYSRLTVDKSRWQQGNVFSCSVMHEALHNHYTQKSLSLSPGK
Excerpt: as §2

binding result [1]: binds
B1: secreted FcCH3B, KiH (Genentech) (T366W), from yeast (other)
chain: TSPPSPAPELLGGPSVFLFPPKPKDTLMISRTPEVTCVVVDVSHEDPEVKFNWYVDGVEVHNAKTKPREEQYQSTYRVVSVLTVLHQDWLNGKEYKCKVSNKALPAPIEKTISKAKGQPREPQVYTLPPSRDELTKNQVSLWCLVKGFYPSDIAVEWESNGQPENNYKTTPPVLDSDGSFFLYSKLTVDKSRWQQGNVFSCSVMHEALHNHYTQKSLSLSPGK
notes: also called KiH CH3B chain (yeast); not shown: flag-tag

binding result [2]: binds
B2: secreted FcCH3B, B256 (D399V/K392G/K409M), from yeast (other)
chain: TSPPSPAPELLGGPSVFLFPPKPKDTLMISRTPEVTCVVVDVSHEDPEVKFNWYVDGVEVHNAKTKPREEQYQSTYRVVSVLTVLHQDWLNGKEYKCKVSNKALPAPIEKTISKAKGQPREPQVYTLPPSRDELTKNQVSLTCLVKGFYPSDIAVEWESNGQPENNYGTTPPVLVSDGSFFLYSMLTVDKSRWQQGNVFSCSVMHEALHNHYTQKSLSLSPGK
notes: also called B256 CH3B chain (yeast); not shown: flag-tag

binding result [3]: no binding
B3: Hole-Hole (secreted FcCH3B from yeast) (other)
secreted Fc chain (hinge-CH2-CH3B): TSPPSPAPELLGGPSVFLFPPKPKDTLMISRTPEVTCVVVDVSHEDPEVKFNWYVDGVEVHNAKTKPREEQYQSTYRVVSVLTVLHQDWLNGKEYKCKVSNKALPAPIEKTISKAKGQPREPQVYTLPPSRDELTKNQVSLSCAVKGFYPSDIAVEWESNGQPENNYKTTPPVLDSDGSFFLVSKLTVDKSRWQQGNVFSCSVMHEALHNHYTQKSLSLSPGK
notes: also called Hole-Hole (Genentech) CH3B chain (yeast), T366S/L368A/Y407V

binding result [4]: binds
B4: secreted FcCH3B, B235 (D399C/K392G/K409M), from yeast (other)
chain: TSPPSPAPELLGGPSVFLFPPKPKDTLMISRTPEVTCVVVDVSHEDPEVKFNWYVDGVEVHNAKTKPREEQYQSTYRVVSVLTVLHQDWLNGKEYKCKVSNKALPAPIEKTISKAKGQPREPQVYTLPPSRDELTKNQVSLTCLVKGFYPSDIAVEWESNGQPENNYGTTPPVLCSDGSFFLYSMLTVDKSRWQQGNVFSCSVMHEALHNHYTQKSLSLSPGK
notes: also called B235 CH3B chain (yeast); not shown: flag-tag

binding result [5]: binds
B5: secreted FcCH3B, B239 (D399S/K392G/K409M), from yeast (other)
chain: TSPPSPAPELLGGPSVFLFPPKPKDTLMISRTPEVTCVVVDVSHEDPEVKFNWYVDGVEVHNAKTKPREEQYQSTYRVVSVLTVLHQDWLNGKEYKCKVSNKALPAPIEKTISKAKGQPREPQVYTLPPSRDELTKNQVSLTCLVKGFYPSDIAVEWESNGQPENNYGTTPPVLSSDGSFFLYSMLTVDKSRWQQGNVFSCSVMHEALHNHYTQKSLSLSPGK
notes: also called B239 CH3B chain (yeast); not shown: flag-tag

binding result [6]: binds
B6: secreted FcCH3B, B240 (D399G/K392G/K409M), from yeast (other)
chain: TSPPSPAPELLGGPSVFLFPPKPKDTLMISRTPEVTCVVVDVSHEDPEVKFNWYVDGVEVHNAKTKPREEQYQSTYRVVSVLTVLHQDWLNGKEYKCKVSNKALPAPIEKTISKAKGQPREPQVYTLPPSRDELTKNQVSLTCLVKGFYPSDIAVEWESNGQPENNYGTTPPVLGSDGSFFLYSMLTVDKSRWQQGNVFSCSVMHEALHNHYTQKSLSLSPGK
notes: also called B240 CH3B chain (yeast); not shown: flag-tag

binding result [7]: binds
B7: secreted FcCH3B, B215 (D399W/K392G/K409M), from yeast (other)
chain: TSPPSPAPELLGGPSVFLFPPKPKDTLMISRTPEVTCVVVDVSHEDPEVKFNWYVDGVEVHNAKTKPREEQYQSTYRVVSVLTVLHQDWLNGKEYKCKVSNKALPAPIEKTISKAKGQPREPQVYTLPPSRDELTKNQVSLTCLVKGFYPSDIAVEWESNGQPENNYGTTPPVLWSDGSFFLYSMLTVDKSRWQQGNVFSCSVMHEALHNHYTQKSLSLSPGK
notes: also called B215 CH3B chain (yeast); not shown: flag-tag
